B1: Dom34 (Pelota of Saccharomyces cerevisiae) (natural protein, S. cerevisiae, UniProt P33309 1-386, looked up)
chain: MKVISLKKDSFNKGGAVITLLPEDKEDLFTVYQIVDKDDELIFKKKFTSKLDEAGKKKSTDLVKLKIKVISEDFDMKDEYLKYKGVTVTDESGASNVDIPVGKYLSFTLDYVYPFTIIKQNFNKFMQKLLNEACNIEYKSDTAAVVLQEGIAHVCLVTSSSTILKQKIEYSMPKKKRTTDVLKFDEKTEKFYKAIYSAMKKDLNFDKLKTIILCSPGFYAKILMDKIFQYAEEEHNKKILDNKGMFFIAHCSTGYLQGINEVLKNPLYASKLQDTKYSKEIMVMDEFLLHLNKDDDKAWYGEKEVVKAAEYGAISYLLLTDKVLHSDNIAQREEYLKLMDSVESNGGKALVLSTLHSLGEELDQLTGIACILKYPLPDLDEDDGEE

Columns and labels:
[1] = target: Rli1 (ABCE1 of Saccharomyces cerevisiae) (S. cerevisiae, UniProt Q03195 1-608); test: cryo-EM structure
Rli1 (ABCE1 of Saccharomyces cerevisiae), sequence (Q03195 whole entry): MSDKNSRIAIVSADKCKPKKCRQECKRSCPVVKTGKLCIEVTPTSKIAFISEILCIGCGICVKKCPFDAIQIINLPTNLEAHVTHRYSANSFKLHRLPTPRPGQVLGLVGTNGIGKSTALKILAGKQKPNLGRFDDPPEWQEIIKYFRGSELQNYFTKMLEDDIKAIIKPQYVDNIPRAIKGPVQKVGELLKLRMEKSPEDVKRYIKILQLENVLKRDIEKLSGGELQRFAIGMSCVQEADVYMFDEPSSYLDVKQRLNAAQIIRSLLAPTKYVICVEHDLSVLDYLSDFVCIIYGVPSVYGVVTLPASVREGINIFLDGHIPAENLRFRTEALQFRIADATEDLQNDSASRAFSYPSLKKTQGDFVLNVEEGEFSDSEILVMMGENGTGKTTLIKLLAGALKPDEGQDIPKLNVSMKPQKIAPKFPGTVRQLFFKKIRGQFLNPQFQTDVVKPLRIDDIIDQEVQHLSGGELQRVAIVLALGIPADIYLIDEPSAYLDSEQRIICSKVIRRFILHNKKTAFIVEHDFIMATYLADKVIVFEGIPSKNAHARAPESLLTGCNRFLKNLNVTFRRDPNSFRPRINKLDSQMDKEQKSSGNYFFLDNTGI

[2] = target: B1; test: cryo-EM structure

binding result [1]	binding result [2]	Binder
binds		B1
binds		ribosomal protein rpP0 (yeast 60S subunit) (natural protein, UniProt P05317 1-312, looked up) MGGIREKKAEYFAKLREYLEEYKSLFVVGVDNVSSQQMHEVRKELRGRAVVLMGKNTMVRRAIRGFLSDLPDFEKLLPFVKGNVGFVFTNEPLTEIKNVIVSNRVAAPARAGAVAPEDIWVRAVNTGMEPGKTSFFQALGVPTKIARGTIEIVSDVKVVDAGNKVGQSEASLLNLLNISPFTFGLTVVQVYDNGQVFPSSILDITDEELVSHFVSAVSTIASISLAIGYPTLPSVGHTLINNYKDLLAVAIAASYHYPEIEDLVDRIENPEKYAAAAPAATSAASGDAAPAEEAAAEEEEESDDDMGFGLFD
	binds	ribosomal protein rpS30 (yeast 40S subunit) (natural protein, UniProt P0CX33 1-63, looked up) MAKVHGSLARAGKVKSQTPKVEKTEKPKKPKGRAYKRLLYTRRFVNVTLVNGKRRMNPGPSVQ
